We go through 61 molecules from patent publication US20100247589A1.

Where no end group is shown, it is not given here. The star is where a group is joined. Biotin = O=C1N[C@H]2[C@H](CS[C@H]2CCCCC(=O)*)N1

The first assay concerns the target tooth pellicle (thin film derived from salivary glycoproteins, formed in a human mouth) (human). Briefly: ELISA, 20 uM biotinylated peptide on pellicle-coated bovine enamel, streptavidin-HRP, normalized to DenP03; no-peptide control -0.001. In general terms: ELISA stands for enzyme-linked immunosorbent assay.
For SSRPDLGTFPNRTLKMAAHK(Biotin) [DenP11-A], the O.D.450 (normalized) came to 0.454.

For the molecule SSRPELDHDSRHYMNGLQRKVTK(Biotin) [DenP15-A], the O.D.450 (normalized) turned out to be 0.46.

In turn, SSRPTTGSSSQADTSASMSIVPAHK(Biotin) [DenP17-A] returned an O.D.450 (normalized) of 0.143.

On to SSRPFDGIGLGTATRHQNRK(Biotin) [DenP12-A], for which the O.D.450 (normalized) amounted to 0.475.

SSRPQAAQVHMMQHSRPTTK(Biotin) [DenP13-A]: the O.D.450 (normalized) is 0.699.

The molecule SSRPSEARARTFNDHTTPMPIIK(Biotin) [DenP14-A] registered an O.D.450 (normalized) of 0.269.

As to SSRPVEPATKNMREARSSTQMRRIK(Biotin) [DenP4-A], the O.D.450 (normalized) amounted to 0.803.

As to SSRPYLLPKDQTTAPQVTPIVQHKK(Biotin) [DenP5-A], the O.D.450 (normalized) was 0.462.

In the case of SSRPTMTNHVYNSYTEKHSSTHRSK(Biotin) [DenP2-A], the O.D.450 (normalized) was determined as 0.273.

Take SSRPGPQHVLMQDTHQGYAFDNK(Biotin) [DenP16-A]: the O.D.450 (normalized) came out at 0.309.

Consider SSRPNGNNHTDIPNRSSYTGGSFAK(Biotin) [DenP1-A], for which the O.D.450 (normalized) was found to be 0.154.

In the case of SSRPEFPYYNDNPPNPERHTLRK(Biotin) [DenP7-A], the O.D.450 (normalized) amounted to 0.356.

Another assay shares this target. Briefly: phage ELISA on pellicle-coated bovine enamel, anti-M13-HRP, normalized to internal control.
QAAQVHMMQHSRPTT [DenP13] had an O.D.450 (normalized) of 0.845.

The molecule TYQGVPSWPAVIDDAIRR [DenP19] showed an O.D.450 (normalized) of 1.05.

As for HKNAIQPVNDATTLDTTM [DenP9], the O.D.450 (normalized) was 1.36.

DTIHPNKMKSPSSPL [DenP26] displayed an O.D.450 (normalized) of 1.04.

QVPDYLSPTHQKKAFLEIPT [DenP29] registered an O.D.450 (normalized) of 0.976.

The molecule HDPNHLTHQARTIYRNANHT [DenP23] displayed an O.D.450 (normalized) of 1.24.

With HKNENIMQYNVNDRWHITPA [DenP32], the O.D.450 (normalized) was 1.44.

In turn, FDGIGLGTATRHQNR [DenP12] yielded an O.D.450 (normalized) of 2.08.

In the case of APPTYQTASYPHNLPSKRKM [DenP28], the O.D.450 (normalized) stood at 1.2.

In turn, ELDHDSRHYMNGLQRKVT [DenP15] came in with an O.D.450 (normalized) of 1.11.

SNATMYNIQSHSHHQ [DenP24] had an O.D.450 (normalized) of 0.979.

As to TTGSSSQADTSASMSIVPAH [DenP17], the O.D.450 (normalized) was determined as 0.971.

The molecule IPWWNIRAPLNAGGG [Control (SEQ ID NO: 95)] gave an O.D.450 (normalized) of 1.

DLGTFPNRTLKMAAH [DenP11] came in with an O.D.450 (normalized) of 1.66.

In turn, VEPATKNMREARSSTQMRRI [DenP4] yielded an O.D.450 (normalized) of 1.42.

Molecule AVVPADLNDHANHLS [DenP10] returned an O.D.450 (normalized) of 1.62.

Consider NGNNHTDIPNRSSYTGGSFA [DenP1], for which the O.D.450 (normalized) amounted to 1.

On to SEARARTFNDHTTPMPII [DenP14], for which the O.D.450 (normalized) came out at 2.5.

Turning to TMTNHVYNSYTEKHSSTHRS [DenP2], the O.D.450 (normalized) worked out at 1.95.

Turning to GPQHVLMQDTHQGYAFDN [DenP16], the O.D.450 (normalized) was 2.19.

EFPYYNDNPPNPERHTLR [DenP7] returned an O.D.450 (normalized) of 1.5.

DHNNRQHAVEVRENKTHTAR [DenP21] registered an O.D.450 (normalized) of 0.728.

Regarding IYPNESMSTSNVRGPYHP [DenP22], the O.D.450 (normalized) was 1.42.

Regarding TNDLHANPFTGTYIAPDPTS [DenP30], the O.D.450 (normalized) was 1.08.

KAPIANMLQPHSYQYSVA [DenP18]: the O.D.450 (normalized) was found to be 1.14.

For the molecule ANELSTYAQTNPGSG [DenP25], the O.D.450 (normalized) was 0.909.

The molecule VNPNWVETQALHQPPGNT [DenP20] gave an O.D.450 (normalized) of 1.3.

Turning to YLLPKDQTTAPQVTPIVQHK [DenP5], the O.D.450 (normalized) came out at 1.09.

GMPTRYYHNTPPHLTPKF [DenP8] displayed an O.D.450 (normalized) of 1.18.

The target is the same in another assay. Briefly: phage ELISA on pellicle-coated HAP disks, anti-M13-HRP; no-phage control 0.218.
The molecule NGPEVRQIPANFEKL [Pell 11] yielded an O.D.450 of 0.607.

In the case of TPCATYPHFSGCRA [Pell 19], the O.D.450 stood at 0.731.

As to GNTDTTPPNAVMEPTVQHKW [Pell 9], the O.D.450 was 0.755.

With NPTATPHMKDPMHSNAHSSA [Pell 14], the O.D.450 came to 0.7.

Consider NGPDMVQSVGKHKNS [Pell 10], for which the O.D.450 stood at 0.729.

In turn, WCTDFCTRSTPTSTSRSTTS [Pell 20] displayed an O.D.450 of 0.715.

In the case of DECMHGSDVEFCTS [Pell 4], the O.D.450 is 0.664.

DPNESNYENATTVSQPTRHL [Pell 7] yielded an O.D.450 of 0.831.

In turn, TPCAPASFNPHCSR [Pell 18] yielded an O.D.450 of 0.416.

The molecule EPTHPTMRAQMHQSLRSSSP [Pell 8] returned an O.D.450 of 0.712.

Molecule DLCSMQMMNTGCHY [Pell 5] had an O.D.450 of 0.83.

The molecule DECMEPLNAAHCWR [Pell 3] showed an O.D.450 of 0.49.

With AHPESLGIKYALDGNSDPHA [Pell 1], the O.D.450 came out at 0.739.

NPTDSTHMMHARNHE [Pell 16] registered an O.D.450 of 0.578.

The molecule DLCSSPSTWGSCIR [Pell 6] registered an O.D.450 of 0.735.

ASVSNYPPIHHLATSNTTVN [Pell 2]: the O.D.450 was 0.75.

As for QHCITERLHPPCTK [Pell 17], the O.D.450 was determined as 0.614.

NNTSADNPPETDSKHHLSMS [Pell 12] registered an O.D.450 of 0.521.

In turn, NPTDHIPANSTNSRVSKGNT [Pell 15] had an O.D.450 of 0.567.

Regarding NNTWPEGAGHTMPSTNIRQA [Pell 13], the O.D.450 is 0.598.
